The values below come from PMC8617193.

In the assay the target is NFS1 as crystallised in the (NIAU2)2 complexes (human). Put plainly: crystal structure; (NIAU2)2 complexes with wild-type or mutant ISCU2, 16-18 mg/ml, sitting drop, 0.1 M MES pH 6.5, 22.5% PEG-400, 15 °C; space group P41212; 1.57-1.95 Å.

Usually stoichiometry N stands for a count of units in the complex or per binding partner. For the substance “NFS1 as crystallised in the (NIAU2)2 complexes (enzyme)”, the stoichiometry N turned out to be 2.
